From patent US20230212304A1 (BIOSION, published 2023)

T1: recombinant human CTLA4-his protein (Acro biosystems, Cat#CT4-H5229) (human, UniProt P16410 37-162)
T1 construct: bought recombinant protein; not shown: his tag
T1 sequence (looked up): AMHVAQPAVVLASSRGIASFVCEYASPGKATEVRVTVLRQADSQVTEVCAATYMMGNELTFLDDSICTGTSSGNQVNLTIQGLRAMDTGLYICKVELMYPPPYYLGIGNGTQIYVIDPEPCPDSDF


These binders were tested against T1, recombinant human CTLA4-his protein … (assay: BLI, Octet; antibody from cell supernatant on AHC sensor, CTLA4-his as analyte).
Procedure: Briefly, AHC biosensors (anti-human IgG Fc capture, from ForteBio) were presoaked with 10 mM glycine (pH 1.5) for 3 seconds, and then dipped in a well with running buffer (0.5% w/v BSA in PBST) for 3 seconds, the soaking and dipping steps were repeated for three times. […] A new baseline was run for 180 seconds in another well with running buffer. […] Finally, sensors were presoaked with 10 mM glycine (pH 1.5) for 3 seconds, and then were dipped in a well with running buffer for 3 seconds, the soaking and dipping steps repeated for three times. The association and dissociation curves were fit to a 1:1 Langmuir binding model using ForteBio Data Analysis 8.1.

Binder	Kd [nM]	koff [s⁻¹]	kon [M⁻¹ s⁻¹]
huC1D1-V7 (antibody, human IgG4 S228P, kappa, V domains shown, humanized IgG4/kappa; tested as 293F cell supernatant on Octet; also called hu CTLA4 C1D1-V7) VH: EVQLVESGGGLVQPGRSLRLSCTASGFTFSDNWMNWVRQAPGKGLEWVGQIRNKPYNYETYYSDSVKGRFTISRDDSKSIVYLQMNSLKTEDTAVYYCTGGMDYWGQGTTVTVSS VL: DIQMTQSPSSLSASVGDRVTITCGASEIIYGALNWYQQKPGKSPKLLIYGATNLADGVPSRFSGSGSGTDFTLTISSLQPEDVATYYCQKILSPPPWTFGGGTKVEIKR	0.362	0.000169	466000
huC1D1-V11 (antibody, human IgG4 S228P, kappa, V domains shown, humanized IgG4/kappa; tested as 293F cell supernatant on Octet; also called hu CTLA4 C1D1-V11) VH: EVQLVESGGGLVQPGRSLRLSCTASGFTFSDNWMNWVRQAPGKGLEWVGQIRNKPYNYETYYSDSVKGRFTISRDDSKSIVYLQMNSLKTEDTAVYYCTGGMDYWGQGTTVTVSS VL: DIQMTQSPSSLSASVGDRVTITCGASEIIYGALNWYQQKPGKVPKLLIYGATNLADGVPSRFSGSGSGTDFTLTISSLQPEDVATYYCQKILSPPPWTFGGGTKVEIKR	1.25	0.000457	365000
huC1D1-V6 (antibody, human IgG4 S228P, kappa, V domains shown, humanized IgG4/kappa; tested as 293F cell supernatant on Octet; also called hu CTLA4 C1D1-V6) VH: EVQLVESGGGLVQPGRSLRLSCTASGFTFSDNWMNWVRQAPGKGLEWVAQIRNKPYNYETYYSDSVKGRFTISRDDSKSIAYLQMNSLKTEDTAVYYCTGGMDYWGQGTTVTVSS VL: DIQMTQSPSSLSASVGDRVTITCGASEIIYGALNWYQQKPGKSPKLLIYGATNLADGVPSRFSGSGSGTDFTLTISSLQPEDVATYYCQKILSPPPWTFGGGTKVEIKR	0.821	0.000287	349000
huC1D1-V9 (antibody, human IgG4 S228P, kappa, V domains shown, humanized IgG4/kappa; tested as 293F cell supernatant on Octet; also called hu CTLA4 C1D1-V9) VH: EVQLVESGGGLVQPGRSLRLSCTASGFTFSDNWMNWVRQAPGKGLEWVAQIRNKPYNYETYYSDSVKGRFTISRDDSKSIVYLQMNSLKTEDTAVYYCTGGMDYWGQGTTVTVSS VL: DIQMTQSPSSLSASVGDRVTITCGASEIIYGALNWYQQKPGKVPKLLIYGATNLADGVPSRFSGSGSGTDFTLTISSLQPEDVATYYCQKILSPPPWTFGGGTKVEIKR	0.736	0.000228	310000
huC1D1-V10 (antibody, human IgG4 S228P, kappa, V domains shown, humanized IgG4/kappa; tested as 293F cell supernatant on Octet; also called hu CTLA4 C1D1-V10) VH: EVQLVESGGGLVQPGRSLRLSCTASGFTFSDNWMNWVRQAPGKGLEWVAQIRNKPYNYETYYSDSVKGRFTISRDDSKSIAYLQMNSLKTEDTAVYYCTGGMDYWGQGTTVTVSS VL: DIQMTQSPSSLSASVGDRVTITCGASEIIYGALNWYQQKPGKVPKLLIYGATNLADGVPSRFSGSGSGTDFTLTISSLQPEDVATYYCQKILSPPPWTFGGGTKVEIKR	0.943	0.000304	322000
huC1D1-V4 (antibody, human IgG4 S228P, kappa, V domains shown, humanized IgG4/kappa; tested as 293F cell supernatant on Octet; also called hu CTLA4 C1D1-V4) VH: EVQLVESGGGLVQPGRSLRLSCTASGFTFSDNWMNWVRQAPGKGLEWVGQIRNKPYNYETYYSDSVKGRFTISRDDSKSIAYLQMNSLKTEDTAVYYCTGGMDYWGQGTTVTVSS VL: DIQMTQSPSSLSASVGDRVTITCGASEIIYGALNWYQQKPGKSPKLLIYGATNLADGMPSRFSGSGSGRDYTLTISSLQPEDVATYYCQKILSPPPWTFGGGTKVEIKR	0.952	0.000229	240000

Further binders by falling Kd, results first:

Kd [nM]	koff [s⁻¹]	kon [M⁻¹ s⁻¹]	Binder
1.16	0.000259	224000	huC1D1-V3 (antibody, human IgG4 S228P, kappa, V domains shown, humanized IgG4/kappa; tested as 293F cell supernatant on Octet; also called hu CTLA4 C1D1-V3) VH: EVQLVESGGGLVQPGRSLRLSCTASGFTFSDNWMNWVRQAPGKGLEWVGQIRNKPYNYETYYSDSVKGRFTISRDDSKSIVYLQMNSLKTEDTAVYYCTGGMDYWGQGTTVTVSS VL: DIQMTQSPSSLSASVGDRVTITCGASEIIYGALNWYQQKPGKSPKLLIYGATNLADGMPSRFSGSGSGRDYTLTISSLQPEDVATYYCQKILSPPPWTFGGGTKVEIKR
0.995	0.000304	306000	huC1D1-V12 (antibody, human IgG4 S228P, kappa, V domains shown, humanized IgG4/kappa; tested as 293F cell supernatant on Octet; also called hu CTLA4 C1D1-V12; huC1D1-VI2) VH: EVQLVESGGGLVQPGRSLRLSCTASGFTFSDNWMNWVRQAPGKGLEWVGQIRNKPYNYETYYSDSVKGRFTISRDDSKSIAYLQMNSLKTEDTAVYYCTGGMDYWGQGTTVTVSS VL: DIQMTQSPSSLSASVGDRVTITCGASEIIYGALNWYQQKPGKVPKLLIYGATNLADGVPSRFSGSGSGTDFTLTISSLQPEDVATYYCQKILSPPPWTFGGGTKVEIKR
0.559	0.000149	267000	huC1D1-V2 (antibody, human IgG4 S228P, kappa, V domains shown, humanized IgG4/kappa; tested as 293F cell supernatant on Octet; also called hu CTLA4 C1D1-V2) VH: EVQLVESGGGLVQPGRSLRLSCTASGFTFSDNWMNWVRQAPGKGLEWVAQIRNKPYNYETYYSDSVKGRFTISRDDSKSIAYLQMNSLKTEDTAVYYCTGGMDYWGQGTTVTVSS VL: DIQMTQSPSSLSASVGDRVTITCGASEIIYGALNWYQQKPGKSPKLLIYGATNLADGMPSRFSGSGSGRDYTLTISSLQPEDVATYYCQKILSPPPWTFGGGTKVEIKR
0.184	4.61e-05	250000	huC1D1-V1 (antibody, human IgG4 S228P, kappa, V domains shown, humanized IgG4/kappa; tested as 293F cell supernatant on Octet; also called huCTLA4 C1D1-V1) VH: EVQLVESGGGLVQPGRSLRLSCTASGFTFSDNWMNWVRQAPGKGLEWVAQIRNKPYNYETYYSDSVKGRFTISRDDSKSIVYLQMNSLKTEDTAVYYCTGGMDYWGQGTTVTVSS VL: DIQMTQSPSSLSASVGDRVTITCGASEIIYGALNWYQQKPGKSPKLLIYGATNLADGMPSRFSGSGSGRDYTLTISSLQPEDVATYYCQKILSPPPWTFGGGTKVEIKR
